# Test results from patent publication EP1340979A2, “Neuropeptide receptor and uses thereof” (Pfizer Limited, priority 2002, dated 2003).
# Where a SMILES comes first, the peptide text is derived from it. Bridges are numbered along the chain shown (N, C = ends). [ ]: non-standard residue; d: D form. The star is where a group is joined. d2Nal = N[C@H](Cc1ccc2ccccc2c1)C(=O)O; Nle = CCCC[C@H](N)C(=O)O; Ahp = NCCCCCCC(=O)O; Bn = c1ccc(C*)cc1
# Biological target: receptor MRGX2 (human) (UniProt Q96LB1)
# Assay: cell-based or functional assay
# Settings: not given
row,Compound,"EC50 (µM), intracellular calcium mobilisation (FLIPR)"
1,NPAF (from UniProt O15130 93-110) (peptide),> 10 µM
2,BAM 13-22 (from UniProt P01211 37-46) (peptide),0.1 µM
3,HS014 (peptide),> 10 µM
4,"(Deamino-Cysl,D-Orn^8) Vasopressin (from UniProt P01185 20-28) (peptide)",> 10 µM
5,NPSF (peptide),> 10 µM
6,N9642 (β-(2-Naphthyl)-D-Ala-Cys-Tyr-D-Trp-Lys-Val-Cys-Thr amide [Disulfide Bridge: 2-7] (sst2R agonist)) (peptide),0.251 µM
7,Dynorphin A (from UniProt P01213 207-219) (peptide),1.85 µM
8,Somatostatin 14 (from UniProt P61278 89-116) (peptide),0.78 µM
9,Oxytocin (from UniProt P01178 20-28) (peptide),1.47 µM
10,Hexarelin (peptide),9.5 µM
11,D-Trp-Somatostatin (from UniProt P61278 103-116) (peptide),0.179 µM

# Results, then the compound that gave them:
row,"EC50 (µM), intracellular calcium mobilisation (FLIPR)",Compound
1,> 10 µM,Nociceptin (from UniProt Q13519 130-146) (peptide)
2,0.42 µM,"HS024 (Acetyl-Cys^3,Nle^4,Arg^5,D-2-Nal^7,Cys^11)-α-MSH (3-11) amide (from UniProt P01189 140-148) (peptide)"
3,> 10 µM,NPVF (from UniProt Q9HCQ7 124-131) (peptide)
4,1.47 µM,Cyclosomatostatin (peptide)
5,> 10 µM,Octreotide (peptide)
6,> 10 µM,Apelin 13 (from UniProt Q9ULZ1 65-77) (peptide)
7,7.4 µM,"(Ser^4, Ile^8)-Oxytocin (from UniProt P01178 20-28) (peptide)"

# Biological target: five known SST receptors
# Assay: not given
# Settings: range over the five known SST receptors; cited from earlier work
row,Compound,EC50
1,"Cortistatin (PCKNFFWKTFSSCK) [CST, cyclic peptide derived from a prepropeptide of 114 residues in man]",0.25 to 0.9 nM

# Tested on: not given
# Assay: not given
# Settings: i.c.v. administration, free feeding rats, maximal response at 1nmol dose; cited from earlier work
row,Compound,food intake
1,"CCCC[C@@H]1NC(=O)[C@@H](NC(C)=O)CSSC[C@@H](C(N)=O)NC(=O)CNC(=O)[C@H](Cc2c[nH]c3ccccc23)NC(=O)[C@H](CCCNC(=N)N)NC(=O)[C@@H](Cc2ccc3ccccc3c2)NC(=O)[C@H](Cc2c[nH]cn2)NC(=O)[C@H](CCCNC(=N)N)NC1=O [HS024, (Acetyl-Cys^3,Nle^4,Arg^5,D-2-Nal^7,Cys^11)-a-MSH (3-11) amide] (Ac-C[Nle]RH[d2Nal]RWGC-NH2; disulfide 1-9 (inferred))",dose dependant increase in food intake

# Tested on: SNSR3
# Assay: not given
# Settings: SNSR3 (MRGX1); cited from earlier work
row,Compound,EC50
1,Bovine adrenal medulla peptide 22 [BAM 22],13 nM

# Biological target: T1, receptor MRGX2 (Homo sapiens, UniProt Q96LB1)
# T1 sequence (Q96LB1 1-330): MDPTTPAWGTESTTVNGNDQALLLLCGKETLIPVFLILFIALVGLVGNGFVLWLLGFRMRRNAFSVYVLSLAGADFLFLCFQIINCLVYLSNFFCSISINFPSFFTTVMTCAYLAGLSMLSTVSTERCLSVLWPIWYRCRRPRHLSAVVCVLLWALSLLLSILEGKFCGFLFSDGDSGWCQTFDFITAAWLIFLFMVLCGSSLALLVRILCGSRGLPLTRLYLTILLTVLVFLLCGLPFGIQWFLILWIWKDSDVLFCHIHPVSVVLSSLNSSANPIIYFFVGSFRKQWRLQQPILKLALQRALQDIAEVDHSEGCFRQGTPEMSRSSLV
# Assay: Functional assay measuring intracellular calcium mobilisation (FLIPR)
# Assay type: cell-based
# Design: expressed in transfected cells; host or cells: e.g. HEK293 or CHO-K1 engineered to stably express Galpha15 / Gqi-5
# Settings: not given
row,Compound,EC50
1,CSCC[C@H](NC(=O)[C@@H]1CCCN1C(=O)CNC(=O)[C@H](CCCCN)NC(=O)[C@H](Cc1cnc[nH]1)NC(=O)[C@H](CO)NC(=O)[C@H](CC(C)C)NC(=O)[C@H](CCCNC(=N)N)NC(=O)[C@@H]1CCCN1C(=O)[C@H](CCCNC(=N)N)NC(=O)[C@@H](N)CCC(N)=O)C(=O)N1CCC[C@H]1C(=O)N[C@@H](Cc1ccccc1)C(=O)O [Apelin 13],> 10000 nM

# Same assay, conditions: Preliminary EC50 data for receptor MRGX2; transiently transfected host cells expressing Gα15 / Gqi-5, Fluo3 fluorescence; read-out: EC50
row,Compound,EC50
1,"CC(C)[C@@H]1NC(=O)[C@H](CCCCN)NC(=O)[C@@H](Cc2c[nH]c3ccccc23)NC(=O)[C@H](Cc2ccc(O)cc2)NC(=O)[C@@H](NC(=O)[C@H](N)Cc2ccc3ccccc3c2)CSSC[C@@H](C(=O)N[C@H](C(N)=O)[C@@H](C)O)NC1=O [Peptide N9642, β-(2-Naphthyl)-D-Ala-Cys-Tyr-D-Trp-Lys-Val-Cys-Thr amide [Disulfide Bridge: 2-7]]",251 nM
2,"CC[C@H](C)[C@@H]1NC(=O)[C@H](Cc2ccc(O)cc2)NC(=O)[C@@H](N)CSSC[C@@H](C(=O)N2CCC[C@H]2C(=O)N[C@H](C(=O)NCC(N)=O)[C@@H](C)CC)NC(=O)[C@H](CC(N)=O)NC(=O)[C@H](CO)NC1=O [(Ser^4, Ile^8)-Oxytocin] (H-CYISNCPIG-NH2; disulfide 1-6)",7400 nM
3,C[C@H](N)C(=O)NCC(=O)N[C@H]1CSSC[C@@H](C(=O)O)NC(=O)[C@H](CO)NC(=O)[C@H]([C@@H](C)O)NC(=O)[C@H](Cc2ccccc2)NC(=O)[C@H]([C@@H](C)O)NC(=O)[C@H](CCCCN)NC(=O)[C@@H](Cc2c[nH]c3ccccc23)NC(=O)[C@H](Cc2ccccc2)NC(=O)[C@H](Cc2ccccc2)NC(=O)[C@H](CC(N)=O)NC(=O)[C@H](CCCCN)NC1=O [D-Trp-Somatostatin],179 nM

# Second part, the compound after the results:
row,EC50,Compound
1,1470 nM,CC[C@H](C)[C@@H]1NC(=O)[C@H](Cc2ccc(O)cc2)NC(=O)[C@@H](N)CSSC[C@@H](C(=O)N2CCC[C@H]2C(=O)N[C@@H](CC(C)C)C(=O)NCC(N)=O)NC(=O)[C@H](CC(N)=O)NC(=O)[C@H](CCC(N)=O)NC1=O [Oxytocin]
2,1470 nM,C[C@@H](OCc1ccccc1)[C@@H]1NC(=O)[C@H](CCCCN)NC(=O)[C@@H](Cc2c[nH]c3ccccc23)NC(=O)[C@H](Cc2ccccc2)NC(=O)CCCCCCNC1=O [Cyclosomatostatin] (cyclo([Ahp]F[dW]KT(Bn)); ring closure inferred)
3,> 10000 nM,CC(C)C[C@H](NC(=O)[C@H](CC(N)=O)NC(=O)[C@@H]1CCCN1C(=O)[C@@H](N)C(C)C)C(=O)N1CCC[C@H]1C(=O)N[C@@H](CCC(N)=O)C(=O)N[C@@H](CCCNC(=N)N)C(=O)N[C@@H](Cc1ccccc1)C(N)=O [NPVF]

# Same assay, conditions: at a concentration of 1µM
row,Compound,response of the MRGX2 receptor
1,α-MSH,responds
2,γ-MSH,responds

# Biological target: MC4 receptor (Homo sapiens, UniProt P32245)
# Assay: not given
# Settings: cited from earlier work
# Sequence of MC4 receptor (P32245 whole entry): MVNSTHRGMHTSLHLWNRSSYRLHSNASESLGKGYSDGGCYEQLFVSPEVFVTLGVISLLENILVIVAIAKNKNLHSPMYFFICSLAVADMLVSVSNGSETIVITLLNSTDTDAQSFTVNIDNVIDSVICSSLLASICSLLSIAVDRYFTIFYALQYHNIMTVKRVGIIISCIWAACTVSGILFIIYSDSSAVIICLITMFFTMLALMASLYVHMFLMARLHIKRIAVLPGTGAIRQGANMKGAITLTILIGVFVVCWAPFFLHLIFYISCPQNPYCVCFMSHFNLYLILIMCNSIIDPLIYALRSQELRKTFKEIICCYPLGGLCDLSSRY
row,Compound,Ki
1,"CCCC[C@@H]1NC(=O)[C@@H](NC(C)=O)CSSC[C@@H](C(N)=O)NC(=O)CNC(=O)[C@H](Cc2c[nH]c3ccccc23)NC(=O)[C@H](CCCNC(=N)N)NC(=O)[C@@H](Cc2ccc3ccccc3c2)NC(=O)[C@H](Cc2c[nH]cn2)NC(=O)[C@H](CCCNC(=N)N)NC1=O [HS024, (Acetyl-Cys^3,Nle^4,Arg^5,D-2-Nal^7,Cys^11)-a-MSH (3-11) amide] (Ac-C[Nle]RH[d2Nal]RWGC-NH2; disulfide 1-9 (inferred))",0.29 nM

# Biological target: T1, receptor MRGX2
# Assay: Functional assay measuring intracellular calcium mobilisation (FLIPR)
# Assay type: cell-based
# Design: expressed in transfected cells; host or cells: host cell line, e.g. HEK293 or CHO-K1, engineered to stably express Gα15 / Gqi-5
# Settings: Preliminary EC50 data for receptor MRGX2; transiently transfected host cells expressing Gα15 / Gqi-5, Fluo3 fluorescence
# Experimental: 5 x 10^6 cells of a suitable host cell line, chosen to express a low number of endogenous receptors (e.g. HEK293 or CHO-K1) and engineered to stably express Gα15 / Gqi-5, were transiently transfected with 7.5 µg of cDNA encoding receptor MRGX2 in a suitable mammalian cell expression vector, or vector alone, using Lipofectamine Plus® reagent (Gibco BRL) as per the manufacturer's protocol. If the cells were intended for a ligand binding assay or microphysiometry, they were incubated for 24-72 hours post transfection, and then harvested. […]
# Fluorescence Imaging Plate Reader (FLIPR®) technology was employed as a means to detect activation of receptor MRGX2 by various potential GPCR agonists.
# Cells were transfected as described in Example 3. […] The FLIPR® processing involved reading the fluorescence for all samples for 2 minutes; during this time the fluorescence baseline was determined for 10 seconds. The desired amount of compounds (i.e. potential GPCR agonists) was then automatically transferred to the wells and the fluorescence was continuously monitored for the remainder of the time. […]
# Compounds capable of acting as agonists for the receptor were identified by them causing a transient rise in fluorescence, and therefore in intracellular calcium, in the cells.
row,Compound,EC50
1,Nc1ncnc2nc[nH]c12 [Adenine],No response
